# Data published in paper PMC6555819, “Comprehensive study of nuclear receptor DNA binding provides a revised framework for understanding receptor specificity”.
# Target: RXRa (Homo sapiens, UniProt P19793)
# Test: no ligand; PBM; 180 nM; PBS pH 7.4, 2% milk, 0.02% Triton X-100, 1 mM DTT, BSA, 0.4 mg/ml salmon testes DNA
# Settings: tags: His cleaved; chain copies: 2; label: surface-attached array probe
# RXRa, sequence (P19793 whole entry): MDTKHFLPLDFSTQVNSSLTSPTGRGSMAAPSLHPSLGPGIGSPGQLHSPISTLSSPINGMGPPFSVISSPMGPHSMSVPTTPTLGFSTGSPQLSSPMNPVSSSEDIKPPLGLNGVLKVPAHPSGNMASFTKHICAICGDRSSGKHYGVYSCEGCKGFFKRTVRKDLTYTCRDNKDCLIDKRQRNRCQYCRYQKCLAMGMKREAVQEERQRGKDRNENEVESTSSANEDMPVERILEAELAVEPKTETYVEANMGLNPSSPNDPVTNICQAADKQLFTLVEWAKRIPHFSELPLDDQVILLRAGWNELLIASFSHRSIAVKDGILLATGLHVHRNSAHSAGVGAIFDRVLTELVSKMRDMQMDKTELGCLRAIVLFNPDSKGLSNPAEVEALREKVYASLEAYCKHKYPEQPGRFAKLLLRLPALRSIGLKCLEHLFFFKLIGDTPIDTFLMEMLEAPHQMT
row,Binder,binding signal
1,NRC3_wobSeed93_DR3_T26A_o1 (dsDNA) DNA 1: GCAGTCAAAGTTCATCTAGGTAACGAAAGATATGCTGCGATTGACAGCGTAGAATGAAGG DNA 2: CCTTCATTCTACGCTGTCAATCGCAGCATATCTTTCGTTACCTAGATGAACTTTGACTGC,5.16 PBM z-score against 500 random probes
2,NRC3_wobSeed93_DR3_A23T_o1 (dsDNA) DNA 1: GCAGTCAAAGTTCATCTAGGTATCGTAAGATATGCTGCGATTGACAGCGTAGAATGAAGG DNA 2: CCTTCATTCTACGCTGTCAATCGCAGCATATCTTACGATACCTAGATGAACTTTGACTGC,4.47 PBM z-score against 500 random probes
3,NRC3_wobSeed101_DR4_G20T_o1 (dsDNA) DNA 1: GCCCTTACGGGTCACTCCATGTTATAGCATCGGAGTGCGATTGACAGCGTAGAATGAAGG DNA 2: CCTTCATTCTACGCTGTCAATCGCACTCCGATGCTATAACATGGAGTGACCCGTAAGGGC,4.24 PBM z-score against 500 random probes
4,NRC3_wobSeed3_DR0_G21C_o1 (dsDNA) DNA 1: GCGCTCGGAGGACAAGGTCACAGCTTTGTCCGTAGAGCGATTGACAGCGTAGAATGAAGG DNA 2: CCTTCATTCTACGCTGTCAATCGCTCTACGGACAAAGCTGTGACCTTGTCCTCCGAGCGC,4.86 PBM z-score against 500 random probes
5,NRC3_wobSeed50_DR2_T12G_o1 (dsDNA) DNA 1: GCCCTAGTTGGGCAGGAGGTCACACACCGGATATGAGCGATTGACAGCGTAGAATGAAGG DNA 2: CCTTCATTCTACGCTGTCAATCGCTCATATCCGGTGTGTGACCTCCTGCCCAACTAGGGC,3.92 PBM z-score against 500 random probes
6,NRC3_wobSeed2_DR0_C4T_o1 (dsDNA) DNA 1: GCCTTAGTTGGTCAAGGTCACACACGCTATAGGTACGCGATTGACAGCGTAGAATGAAGG DNA 2: CCTTCATTCTACGCTGTCAATCGCGTACCTATAGCGTGTGTGACCTTGACCAACTAAGGC,5.06 PBM z-score against 500 random probes
7,NRC3_wobSeed122_DR5_G10T_o1 (dsDNA) DNA 1: GCGCTAGTTTGTCAGTAAAAGGTCACACACCGGTCGGCGATTGACAGCGTAGAATGAAGG DNA 2: CCTTCATTCTACGCTGTCAATCGCCGACCGGTGTGTGACCTTTTACTGACAAACTAGCGC,5.24 PBM z-score against 500 random probes
8,NRC3_wobSeed122_DR5_C4A_o1 (dsDNA) DNA 1: GCGATAGTTGGTCAGTAAAAGGTCACACACCGGTCGGCGATTGACAGCGTAGAATGAAGG DNA 2: CCTTCATTCTACGCTGTCAATCGCCGACCGGTGTGTGACCTTTTACTGACCAACTATCGC,4.99 PBM z-score against 500 random probes
9,NRC3_wobSeed18_DR0_G16T_o1 (dsDNA) DNA 1: GCGATACAGGGTCAATGCCAGAGTACGCGTATTGATGCGATTGACAGCGTAGAATGAAGG DNA 2: CCTTCATTCTACGCTGTCAATCGCATCAATACGCGTACTCTGGCATTGACCCTGTATCGC,4.72 PBM z-score against 500 random probes
10,NRC3_wobSeed124_DR5_T16A_o1 (dsDNA) DNA 1: GCCCTACTGGGCCATACAGAGGTCATTGATCATATGGCGATTGACAGCGTAGAATGAAGG DNA 2: CCTTCATTCTACGCTGTCAATCGCCATATGATCAATGACCTCTGTATGGCCCAGTAGGGC,4.2 PBM z-score against 500 random probes
11,NRC3_wobSeed124_DR5_T5C_o1 (dsDNA) DNA 1: GCCCCACTGGGCCATTCAGAGGTCATTGATCATATGGCGATTGACAGCGTAGAATGAAGG DNA 2: CCTTCATTCTACGCTGTCAATCGCCATATGATCAATGACCTCTGAATGGCCCAGTGGGGC,3.75 PBM z-score against 500 random probes
12,NRC3_wobSeed82_DR3_A28G_o1 (dsDNA) DNA 1: GCATCGAAAGGTCGACGAGGTGAGTATGCACCGTTTGCGATTGACAGCGTAGAATGAAGG DNA 2: CCTTCATTCTACGCTGTCAATCGCAAACGGTGCATACTCACCTCGTCGACCTTTCGATGC,4.34 PBM z-score against 500 random probes
13,NRC3_wobSeed88_DR3_C7A_o1 (dsDNA) DNA 1: GCTAGCATAGGTCATGCGGGCCAGTATAGTGTCGGCGCGATTGACAGCGTAGAATGAAGG DNA 2: CCTTCATTCTACGCTGTCAATCGCGCCGACACTATACTGGCCCGCATGACCTATGCTAGC,4.81 PBM z-score against 500 random probes
14,NRC3_wobSeed98_DR4_o1 (dsDNA) DNA 1: GCACTAGTTGGTCAGCTGAGGTCACACACAATTCGGGCGATTGACAGCGTAGAATGAAGG DNA 2: CCTTCATTCTACGCTGTCAATCGCCCGAATTGTGTGTGACCTCAGCTGACCAACTAGTGC,4.42 PBM z-score against 500 random probes
15,NRC3_wobSeed98_DR4_G15C_o1 (dsDNA) DNA 1: GCACTAGTTGGTCACCTGAGGTCACACACAATTCGGGCGATTGACAGCGTAGAATGAAGG DNA 2: CCTTCATTCTACGCTGTCAATCGCCCGAATTGTGTGTGACCTCAGGTGACCAACTAGTGC,4.28 PBM z-score against 500 random probes
16,NRC3_wobSeed73_DR3_C22T_o1 (dsDNA) DNA 1: GCCAAACTAGGTCACAGAGGTTAAAGTCCGTGCGTAGCGATTGACAGCGTAGAATGAAGG DNA 2: CCTTCATTCTACGCTGTCAATCGCTACGCACGGACTTTAACCTCTGTGACCTAGTTTGGC,5.19 PBM z-score against 500 random probes
17,NRC3_wobSeed73_DR3_T21G_o1 (dsDNA) DNA 1: GCCAAACTAGGTCACAGAGGGCAAAGTCCGTGCGTAGCGATTGACAGCGTAGAATGAAGG DNA 2: CCTTCATTCTACGCTGTCAATCGCTACGCACGGACTTTGCCCTCTGTGACCTAGTTTGGC,4.01 PBM z-score against 500 random probes

row,Binder,binding signal
1,NRC3_wobSeed133_DR5_T23C_o1 (dsDNA) DNA 1: GCCGTCCAAGGTCAATGCTAGGCCAGTGAAAGCATTGCGATTGACAGCGTAGAATGAAGG DNA 2: CCTTCATTCTACGCTGTCAATCGCAATGCTTTCACTGGCCTAGCATTGACCTTGGACGGC,4.95 PBM z-score against 500 random probes
2,NRC3_wobSeed97_DR4_T22G_o1 (dsDNA) DNA 1: GCCAAACTAGGTCACGAAAGGGCAAAGTCGAATGACGCGATTGACAGCGTAGAATGAAGG DNA 2: CCTTCATTCTACGCTGTCAATCGCGTCATTCGACTTTGCCCTTTCGTGACCTAGTTTGGC,4.76 PBM z-score against 500 random probes
3,NRC3_wobSeed36_DR1_A26G_o1 (dsDNA) DNA 1: GCCCGACTGGGGCAAAGGTTACCATGCTCAGTACGAGCGATTGACAGCGTAGAATGAAGG DNA 2: CCTTCATTCTACGCTGTCAATCGCTCGTACTGAGCATGGTAACCTTTGCCCCAGTCGGGC,3.81 PBM z-score against 500 random probes
4,NRC3_wobSeed30_DR1_C4G_o1 (dsDNA) DNA 1: GCAGTAGCAGGCCAAGGGTCACTCAAGATTAGTCCGGCGATTGACAGCGTAGAATGAAGG DNA 2: CCTTCATTCTACGCTGTCAATCGCCGGACTAATCTTGAGTGACCCTTGGCCTGCTACTGC,4.38 PBM z-score against 500 random probes
5,NRC3_wobSeed46_DR1_T22G_o1 (dsDNA) DNA 1: GCTTACCAAGGTGAAAGGTCGGTGATGCACGCCTTGGCGATTGACAGCGTAGAATGAAGG DNA 2: CCTTCATTCTACGCTGTCAATCGCCAAGGCGTGCATCACCGACCTTTCACCTTGGTAAGC,3.86 PBM z-score against 500 random probes
6,NRC3_wobSeed100_DR4_C12G_o1 (dsDNA) DNA 1: GCCCTACTGGGGCACGAAAGGTCATTGATTCAGTGAGCGATTGACAGCGTAGAATGAAGG DNA 2: CCTTCATTCTACGCTGTCAATCGCTCACTGAATCAATGACCTTTCGTGCCCCAGTAGGGC,5.1 PBM z-score against 500 random probes
7,NRC3_wobSeed100_DR4_C15T_o1 (dsDNA) DNA 1: GCCCTACTGGGCCATGAAAGGTCATTGATTCAGTGAGCGATTGACAGCGTAGAATGAAGG DNA 2: CCTTCATTCTACGCTGTCAATCGCTCACTGAATCAATGACCTTTCATGGCCCAGTAGGGC,4.52 PBM z-score against 500 random probes
8,NRC3_wobSeed100_DR4_C13G_o1 (dsDNA) DNA 1: GCCCTACTGGGCGACGAAAGGTCATTGATTCAGTGAGCGATTGACAGCGTAGAATGAAGG DNA 2: CCTTCATTCTACGCTGTCAATCGCTCACTGAATCAATGACCTTTCGTCGCCCAGTAGGGC,4.57 PBM z-score against 500 random probes
9,NRC3_wobSeed74_DR3_C15T_o1 (dsDNA) DNA 1: GCTCTAGTTGGTCATGGAGGTCACACACGACGGGTAGCGATTGACAGCGTAGAATGAAGG DNA 2: CCTTCATTCTACGCTGTCAATCGCTACCCGTCGTGTGTGACCTCCATGACCAACTAGAGC,5.28 PBM z-score against 500 random probes
10,NRC3_wobSeed74_DR3_A14G_o1 (dsDNA) DNA 1: GCTCTAGTTGGTCGCGGAGGTCACACACGACGGGTAGCGATTGACAGCGTAGAATGAAGG DNA 2: CCTTCATTCTACGCTGTCAATCGCTACCCGTCGTGTGTGACCTCCGCGACCAACTAGAGC,4.16 PBM z-score against 500 random probes
11,NRC3_wobSeed99_DR4_G10T_o1 (dsDNA) DNA 1: GCTCTCGGATGACACGAAAGGTCAGAGCTCGACATCGCGATTGACAGCGTAGAATGAAGG DNA 2: CCTTCATTCTACGCTGTCAATCGCGATGTCGAGCTCTGACCTTTCGTGTCATCCGAGAGC,4.05 PBM z-score against 500 random probes
12,NRC3_wobSeed34_DR1_A15C_o1 (dsDNA) DNA 1: GCATCGAAAGGTCGCAGGTGAGTATACCCACCCGAAGCGATTGACAGCGTAGAATGAAGG DNA 2: CCTTCATTCTACGCTGTCAATCGCTTCGGGTGGGTATACTCACCTGCGACCTTTCGATGC,5.33 PBM z-score against 500 random probes
13,NRC3_wobSeed34_DR1_G6T_o1 (dsDNA) DNA 1: GCATCTAAAGGTCGAAGGTGAGTATACCCACCCGAAGCGATTGACAGCGTAGAATGAAGG DNA 2: CCTTCATTCTACGCTGTCAATCGCTTCGGGTGGGTATACTCACCTTCGACCTTTAGATGC,4.9 PBM z-score against 500 random probes
14,NRC3_wobSeed21_DR0_G17C_o1 (dsDNA) DNA 1: GCCGTCAAAGTTCAAGCTAACGTAACAGAAAGCAGCGCGATTGACAGCGTAGAATGAAGG DNA 2: CCTTCATTCTACGCTGTCAATCGCGCTGCTTTCTGTTACGTTAGCTTGAACTTTGACGGC,4.62 PBM z-score against 500 random probes
15,NRC3_wobSeed21_DR0_T18C_o1 (dsDNA) DNA 1: GCCGTCAAAGTTCAAGGCAACGTAACAGAAAGCAGCGCGATTGACAGCGTAGAATGAAGG DNA 2: CCTTCATTCTACGCTGTCAATCGCGCTGCTTTCTGTTACGTTGCCTTGAACTTTGACGGC,3.96 PBM z-score against 500 random probes
16,NRC3_wobSeed5_DR0_A20G_o1 (dsDNA) DNA 1: GCCCTTACGGGTCAAGGTTGTAGCACGGGTGGTACGGCGATTGACAGCGTAGAATGAAGG DNA 2: CCTTCATTCTACGCTGTCAATCGCCGTACCACCCGTGCTACAACCTTGACCCGTAAGGGC,4.67 PBM z-score against 500 random probes
